The results in this text go back to US5717058A, “Peptide inhibitors of tax-dependent transcription” (priority 1994, dated 1998).

The nature of data set [1]: solubility in aqueous solution. Format: physicochemical.
The target of data set [2] is T1, Tax-CREB interaction (Homo sapiens, UniProt P16220).
T1 construct: made in house
Put plainly: EMSA, inhibition of Tax-mediated enhancement of CREB binding to HTLV-I 21 bp repeat DNA. Particulars: for fold enhancement: 200 nM Tax. From the text: The HTLV-I transactivator Tax enhances the binding of CREB to the 21 bp repeat sequences contained in the HTLV-I LTR (Zhao and Giam (1992) PNAS 89:7070-7074; Franklin et al. 1993 J. Biol. Chem. 268:21225-21231; Wagner and Green, 1993 Science 262:395-399). We are testing whether peptides representing portions of the primary sequence of Tax can disrupt the Tax-CREB interaction as measured by EMSA.
Purified recombinant CREB was isolated as previously published (Franklin et al. 1993 J. Biol. Chem. 268:21225-21231) and active DNA-binding CREB was purified by heparin-agarose chromatography. Purified recombinant TaxH6 (contains a six-histidine purification tag at the C-terminus of Tax) was isolated an purified as previously published (Zhao and Giam (1991) PNAS 88:12445-11449; Franklin et al. 1993 J. Biol. Chem. 268:21225-21231). Peptides were synthesized and purified as described in Example 1. The third HTLV-I 21 bp repeat (Seq. ID. No. 43) was cloned into the Bgl II site of pUC19. The 70 bp DNA probe fragment was excised with Kpn I and Hind III, phosphatased and gel purified.
EMSA reactions contained 0.1-2.0 nM [^32 P]end-labeled double stranded site 3 probe, 5-50 ng poly (dI-dC) carrier DNA, 1-5 nM purified recombinant CREB, 100-200 nM purified recombinant TaxH6, 15 mM HEPES pH 8.0, 1.5% DMSO, 25 mM Tris-HCl pH 7.9, 6.25 mM MgCl2, 0.5 mM EDTA, 0.5 mM DTT, 60-120 mM KCl, and 10% (v/v) glycerol, and candidate peptide inhibitors in a 20 μl reaction volume. CREB was incubated with the peptides or mock buffer (5% DMSO 50 mM HEPES pH 8.0) for 2-5 min. at room temp. then TaxH6 and DNA mixture were added. The complete reaction mixture was incubated 10-20 min. further at room temp. then analyzed on 5% non-denaturing polyacrylamide gels (49:1, acrylamide:N,N-methylene bisacrylamide). The electrophoresis buffer contained 0.04M Tris, 0.306M glycine, pH 8.5, and 0.1% Nonidet P-40. Gels were dried were autoradiographed. Relative amounts of protein-DNA complex were quantitated using Phosphor Image Analysis.
The primary amino acid sequence of Tax was divided into 29 peptides 20 amino adds in length with an overlap of eight amino acids (see Detailed Description of the Invention and Example 1). The number of the first amino acid in each peptide corresponds to its position in the primary sequence of Tax. Six peptides were tested by EMSA for inhibition of Tax-mediated enhancement. The percentage of radiolabeled DNA probe shifted into protein-DNA complexes in each reaction was quantitated by phosphorimage analysis. Fold enhancement was calculated by dividing the amount of probe shifted in each reaction by the amount of probe shifted in reactions containing CREB, DNA and mock peptide buffer (Table 1). Reactions in Table 1 contained 0.5 nM radiolabeled DNA probe, 10 ng poly dIdC, 1.25% v/v DMSO, 12.5 mM HEPES pH 8.0, 25 mM Tris pH 7.9, 6.25 mM MgCl2, 75 mM KCl, 0.5 mM EDTA, 0.5 mM DTT, 10% v/v glycerol, and CREB, Tax and peptide as indicated in a final volume of 20 μL.
Reactions in Table 2 contained 0.5 nM radiolabeled DNA probe, 10 ng poly dIdC, 1.75% v/v DMSO, 17.5 mM HEPES pH 8.0, 25 mM Tris pH 7.9, 6.25 mM MgCl2, 75 mM KCl, 0.5 mM EDTA, 0.5 mM DTT, 10% v/v glycerol, and CREB, Tax and peptide as indicated in a final volume of 20 μL. Protein-DNA complexes were quantitated by phosphorimage analysis. Fold enhancement was calculated by dividing the amount of complex formed in each reaction by the amount of complex formed in a reaction containing CREB, DNA, mock Tax buffer and mock peptide buffer.
Reactions in Table 3 contained 0.5 nM radiolabeled DNA probe, 10 ng poly dIdC, 1.75% v/v DMSO, 17.5 mM HEPES pH 8.0, 25 mM Tris pH 7.9, 6.25 mM MgCl2, 75 mM KCl, 0.5 mM EDTA, 0.5 mM DTT, 10% v/v glycerol, and CREB, Tax and peptide as indicated in a final volume of 20 μL. Amount of complex was quantitated by densitometry (PDI). […]

Entries after “also recorded” stand apart in the source; their conditions may differ. No end group written: not given here.

T1 sequence (P16220 whole entry): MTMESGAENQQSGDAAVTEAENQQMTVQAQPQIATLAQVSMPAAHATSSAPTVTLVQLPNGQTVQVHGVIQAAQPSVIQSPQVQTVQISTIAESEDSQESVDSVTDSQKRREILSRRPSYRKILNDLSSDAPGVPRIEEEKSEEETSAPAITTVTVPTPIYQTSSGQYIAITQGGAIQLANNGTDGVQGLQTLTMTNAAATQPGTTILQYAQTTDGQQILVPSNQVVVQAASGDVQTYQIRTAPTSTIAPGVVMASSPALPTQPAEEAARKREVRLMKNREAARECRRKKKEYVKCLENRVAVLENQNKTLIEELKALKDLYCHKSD

As for `CC[C@H](C)[C@H](NC(=O)[C@@H]1CCCN1C(=O)[C@@H](NC(=O)[C@H](CC(N)=O)NC(=O)[C@@H](NC(=O)[C@H](Cc1ccc(O)cc1)NC(=O)[C@H](CCC(=O)O)NC(=O)[C@H](CCC(=O)O)NC(=O)[C@H](Cc1ccccc1)NC(=O)[C@H](CC(C)C)NC(=O)[C@H](CC(C)C)NC(=O)[C@H](Cc1c[nH]cn1)NC(=O)[C@H](CC(C)C)NC(=O)[C@H](CO)NC(=O)[C@H](Cc1c[nH]cn1)NC(=O)[C@H](Cc1ccccc1)NC(=O)[C@@H](N)CO)[C@@H](C)O)[C@@H](C)CC)C(=O)N[C@@H](CO)C(=O)N[C@@H](CC(C)C)C(=O)N[C@@H](CC(C)C)C(N)=O` [TX301], the “solubility in aqueous solution, in words” value in data set [1] is “limited solubility in aqueous solutions; also recorded: sparingly soluble”.
For the compound FLSEFLHSHL [SCM2, reference compound], the fold enhancement in data set [2] (Table 8, SCM2 0.75 μM, 2.3 nM CREB, Tax without peptide 17.0) stood at 17.9 fold; in data set [2] (Table 8, SCM2 1.50 μM, 2.3 nM CREB, Tax without peptide 17.0) it was 17.8 fold; in data set [2] (Table 8, SCM2 7.50 μM, 2.3 nM CREB, Tax without peptide 17.0) it was 14.5 fold; in data set [2] (Table 8, SCM2 15.00 μM, 2.3 nM CREB, Tax without peptide 17.0) it was 9.7 fold; in data set [2] (Table 8, SCM2 75.00 μM, 2.3 nM CREB, Tax without peptide 17.0), 3.3 fold; in data set [2] (Table 8, SCM2 150.00 μM, 2.3 nM CREB, Tax without peptide 17.0), 1.1 fold.
As to “TX313: 20 amino acid Tax peptide beginning at amino acid 313, overlaps TX301 by 8 amino acids”, in data set [2] (EMSA, CREB + Tax + peptide), the “effect on Tax-mediated enhancement of CREB binding to DNA (complex formation), in words” value is on record as “slight enhancement of complex formation at some concentrations”. In addition, the fold enhancement in data set [2] (Table 4, TX313 35 μM, 3.4 nM CREB, Tax without peptide 4.48, densitometry) turned out to be 5.16 fold; in data set [2] (Table 4, TX313 70 μM, 3.4 nM CREB, Tax without peptide 4.48, densitometry), 5.60 fold; in data set [2] (Table 4, TX313 140 μM, 3.4 nM CREB, Tax without peptide 4.48, densitometry), 4.49 fold. Moreover, in data set [2] (titration in EMSA), the “dose dependence of the effect on Tax-mediated enhancement, in words” value was “did not have a dose dependent affect; also recorded: no dose dependence”.
With `CC(C)C[C@H](NC(=O)[C@H](CC(C)C)NC(=O)[C@H](Cc1c[nH]cn1)NC(=O)[C@H](CC(C)C)NC(=O)[C@H](CO)NC(=O)[C@H](Cc1c[nH]cn1)NC(=O)[C@H](Cc1ccccc1)NC(=O)[C@H](CO)NC(=O)CNC(=O)CNC(=O)[C@H](CCC(=O)O)NC(=O)[C@@H](N)CCC(=O)O)C(=O)N[C@@H](Cc1ccccc1)C(=O)N[C@@H](CCC(=O)O)C(N)=O` [Seq ID No. 55, EEGGSFHSLHLLFE], the “solubility in aqueous solution, in words” value in data set [1] is “more soluble”.
For `CC(C)C[C@H](NC(=O)[C@H](CC(C)C)NC(=O)[C@H](Cc1c[nH]cn1)NC(=O)[C@H](CC(C)C)NC(=O)[C@H](CO)NC(=O)[C@H](Cc1c[nH]cn1)NC(=O)[C@H](Cc1ccccc1)NC(=O)[C@H](CO)NC(=O)CNC(=O)CNC(=O)[C@H](CCC(=O)O)NC(=O)[C@@H](N)CCC(=O)O)C(=O)N[C@@H](Cc1ccccc1)C(=O)N[C@@H](CCC(=O)O)C(=O)N[C@@H](CCC(=O)O)C(=O)N[C@@H](CCC(=O)O)C(N)=O` [Seq ID No. 56, EEGGSFHSLHLLFEEE], in data set [1], the “solubility in aqueous solution, in words” value is “more soluble”.
Turning to `CC(C)C[C@H](NC(=O)[C@H](CC(C)C)NC(=O)[C@H](Cc1c[nH]cn1)NC(=O)[C@H](CC(C)C)NC(=O)[C@H](CO)NC(=O)[C@H](Cc1c[nH]cn1)NC(=O)[C@H](Cc1ccccc1)NC(=O)[C@@H](N)CO)C(=O)N[C@@H](Cc1ccccc1)C(=O)N[C@@H](CCC(=O)O)C(=O)N[C@@H](CCC(=O)O)C(=O)N[C@@H](CCC(=O)O)C(N)=O` [Seq ID No. 54, SFHSLHLLFEEE], the “solubility in aqueous solution, in words” value in data set [1] is given as “more soluble”.
As for `CC(C)C[C@H](NC(=O)[C@H](CC(C)C)NC(=O)[C@H](Cc1c[nH]cn1)NC(=O)[C@H](CC(C)C)NC(=O)[C@H](CO)NC(=O)[C@H](Cc1c[nH]cn1)NC(=O)[C@H](Cc1ccccc1)NC(=O)[C@@H](N)CO)C(=O)N[C@@H](Cc1ccccc1)C(=O)N[C@@H](CCC(=O)O)C(N)=O` [TX301-310, SFHSLHLLFE], the “solubility in aqueous solution, in words” value in data set [1] was “sparingly soluble”.
For HSLHLLFEEY-NH2 [TX303-313, HSLHLLFEEY], the “solubility in aqueous solution, in words” value in data set [1] was “sparingly soluble”.
